Data on one molecule can be found in article PMC3218234.

Holding throughout (experiment): SPR
Common to all, as to conditions: remark: other sources report otherwise

The target of assay [1] is human IgG1-Fc homodimer glycoform Fc-5 (Man3GlcNAc2) (human).
Assay [2] addresses human IgG1-Fc homodimer glycoform Fc-1 (bisecting-GlcNAc-Man3GlcNAc2) (human).
Assay [3] concerns the target wild type recombinant human IgG1-Fc homodimer carrying fucosylated complex type N-glycans (CT-Fc) (human).

B1: FcγRIIb, P31994 43-310 (receptor)
chain: TPAAPPKAVLKLEPQWINVLQEDSVTLTCRGTHSPESDSIQWFHNGNLIPTHTQPSYRFKANNNDSGEYTCQTGQTSLSDPVHLTVLSEWLVLQTPHLEFQEGETIVLRCHSWKDKPLVKVTFFQNGKSKKFSRSDPNFSIPQANHSHSGDYHCTGNIGYTLYSSKPVTITVQAP
modifications: not checked
By Kd is commonly meant the free concentration of one partner at which half of the binding sites on the other are occupied at equilibrium, for simple one-to-one binding. B1: the results for the Kd in assay [1], in assay [2] and in assay [3] were 2900 nM, 2200 nM and 2100 nM, respectively.
